Source: paper PMC3814363, “Tracking in atomic detail the functional specializations in viral RecA helicases that occur during evolution” (Nucleic Acids Research, 2013)
Positions count from the first letter of the chain named. In names and notes the source's numbering stands.

What was measured:
ɸ12 P4 = biological target: T1, ɸ12 P4 (Pseudomonas phage phi12, UniProt Q94M05); assay: X-ray crystal structure, […] Å; assay type: binding; details: 5 mM UTP, pH 4.8; nucleotide site; competitive with ATP, not hydrolysed
T1 construct: gene 4; plasmid pPG27 (template for mutants), E. coli BL21(DE3) or B834(DE3); hexamer
T1 sequence (Q94M05 entry or part of it): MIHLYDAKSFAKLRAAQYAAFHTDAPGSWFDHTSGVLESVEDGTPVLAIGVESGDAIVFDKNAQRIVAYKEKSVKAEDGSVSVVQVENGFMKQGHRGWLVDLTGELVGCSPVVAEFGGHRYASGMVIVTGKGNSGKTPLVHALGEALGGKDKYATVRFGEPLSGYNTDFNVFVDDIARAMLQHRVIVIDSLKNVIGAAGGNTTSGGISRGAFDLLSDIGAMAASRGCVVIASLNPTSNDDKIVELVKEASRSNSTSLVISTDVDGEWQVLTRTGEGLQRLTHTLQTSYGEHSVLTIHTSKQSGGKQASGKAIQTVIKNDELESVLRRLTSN

[1] = biological target: ɸ13 P4 (full-length packaging NTPase P4 of bacteriophage ɸ13) (bacteriophage ɸ13); assay: crystal structure; ɸ13 P4 crystals grown at 20°C from 12 mg/ml protein; 100 mM Tris–HCl pH 7.0, 900 mM trisodium citrate, 200 mM NaCl; apo form; hexamer
[2] = biological target: ɸ8 P4Δ281 (C-terminally truncated ɸ8 P4, missing residues 281–321) (bacteriophage ɸ8); assay: crystal structure; ɸ8 P4Δ281 crystals from 5 mg/ml protein; 100 mM Tris pH 8.0, 18% PEG 1000; hexamer
[3] = biological target: ɸ8 P4 (full-length packaging NTPase P4 of bacteriophage ɸ8) (bacteriophage ɸ8); assay: crystal structure; ɸ8 P4 crystals grown at 24°C; 100 mM sodium acetate pH 4.6, […] ammonium sulphate, DTT; protein 3 mg/ml; apo form; hexamer
[4] = biological target: the molecule itself; assay: crystal structure; ɸ6 P4Δ310 crystals grown at 24°C from 3.5 mg/ml protein in 20 mM HEPES pH 8.0, 5 mM MgCl2, 2 mM CaCl2, 5 mM ADP, 100 mM NaCl; reservoir 6% PEG 4000, 90 mM sodium acetate pH 4.5; ADP bound; hexamer
[5] = biological target: the molecule itself; assay: not stated; quaternary structure of purified ɸ12 P4 mutants as listed in Table 1; method not given
[6] = biological target: the molecule itself; assay: crystal structure; wild-type ɸ12 P4 crystals; 10% PEG 1500, 100 mM sodium acetate pH 4.8, 5 mM UTP; hexamer

**Q.** Which “X-ray crystal structure, 1.9 Å” value (ɸ12 P4) does the source give for `O=c1ccn([C@@H]2O[C@H](COP(=O)(O)OP(=O)(O)OP(=O)(O)O)[C@@H](O)[C@H]2O)c(=O)[nH]1` [UTP] here?
**A.** pyrimidine triphosphates can bind the hexamer without being hydrolysed

**Q.** Which stoichiometry N [1] does the source give for “ɸ13 P4 (full-length packaging NTPase P4 of bacteriophage ɸ13) (enzyme)” here?
**A.** 6

**Q.** With “ɸ8 P4Δ281 (C-terminally truncated ɸ8 P4, missing residues 281–321) (domain or fragment)” as the molecule, how does the stoichiometry N [2] read?
**A.** 6

**Q.** With “ɸ8 P4 (full-length packaging NTPase P4 of bacteriophage ɸ8) (enzyme)” as the molecule, how does the stoichiometry N [3] read?
**A.** 6

B1: ɸ6 P4Δ310 (C-terminally truncated packaging NTPase P4 of bacteriophage ɸ6, missing residues 310–331) (domain or fragment, UniProt P11125 1-309, looked up)
chain: MPIVVTQAHIDRVGIAADLLDASPVSLQVLGRPTAINTVVIKTYIAAVMELASKQGGSLAGVDIRPSVLLKDTAIFTKPKAKSADVESDVDVLDTGIYSVPGLARKPVTHRWPSEGIYSGVTALMGATGSGKSITLNEKLRPDVLIRWGEVAEAYDELDTAVHISTLDEMLIVCIGLGALGFNVAVDSVRPLLFRLKGAASAGGIVAVFYSLLTDISNLFTQYDCSVVMVVNPMVDAEKIEYVFGQVMASTVGAILCADGNVSRTMFRTNKGRIFNGAAPLAADTHMPSMDRPTSMKALDHTSIASVAP
notes: packaging NTPase P4 of bacteriophage ɸ6, C-terminally truncated, missing residues 310–331; expressed from plasmid pJTJ7.3/7; Crystallised with ADP, Mg2+ and Ca2+; source: E. coli BL21(DE3) or B834(DE3), purified (Heparin, Q-sepharose, Superdex 200)
**Q.** How did the “stoichiometry N” value [4] turn out when B1 was run?
**A.** 6

B2: ɸ12 P4 Y288A (enzyme, bacteriophage ɸ12)
chain: MIHLYDAKSFAKLRAAQYAAFHTDAPGSWFDHTSGVLESVEDGTPVLAIGVESGDAIVFDKNAQRIVAYKEKSVKAEDGSVSVVQVENGFMKQGHRGWLVDLTGELVGCSPVVAEFGGHRYASGMVIVTGKGNSGKTPLVHALGEALGGKDKYATVRFGEPLSGYNTDFNVFVDDIARAMLQHRVIVIDSLKNVIGAAGGNTTSGGISRGAFDLLSDIGAMAASRGCVVIASLNPTSNDDKIVELVKEASRSNSTSLVISTDVDGEWQVLTRTGEGLQRLTHTLQTSAGEHSVLTIHTSKQSGGKQASGKAIQTVIKNDELESVLRRLTSN
notes: packaging NTPase P4 of bacteriophage ɸ12 (gene 4) with Y288A; made from plasmid pPG27, plasmid pDK29; also called ɸ12 Y288A; source: E. coli BL21(DE3) or B834(DE3), purified (Heparin, Q-sepharose, Superdex 200)
**Q.** With B2 as the molecule, how does the “stoichiometry N” value [5] read?
**A.** 6

B3: ɸ12 P4-S292A (enzyme)
chain: B2 chain with A288Y, S292A
notes: packaging NTPase P4 of bacteriophage ɸ12 (gene 4) with S292A; made from plasmid pPG27, plasmid pDK31; Crystallised with 5 mM AMPcPP; also called ɸ12 S292A; S292A mutant; source: E. coli BL21(DE3) or B834(DE3), purified (Heparin, Q-sepharose, Superdex 200)
**Q.** With B3 as the molecule, how does the “stoichiometry N” value [5] read?
**A.** 6

B4: ɸ12 P4 TTS202-204LKK (enzyme, bacteriophage ɸ12)
chain: B2 chain with T202L, T203K, S204K, A288Y
notes: packaging NTPase P4 of bacteriophage ɸ12 (gene 4) with LKK instead of TTS (residues 202–204); cloned in the pT7-7 vector at NdeI-EcoRI sites; also called ɸ12 TTS202-204LKK; source: E. coli BL21(DE3) or B834(DE3), purified (Heparin, Q-sepharose, Superdex 200)
**Q.** Which “stoichiometry N” value [5] does the source give for B4 here?
**A.** 6

B5: ɸ12 P4-Q278A (enzyme)
chain: B2 chain with Q278A, A288Y
notes: packaging NTPase P4 of bacteriophage ɸ12 (gene 4) with Q278A; made from plasmid pPG27, plasmid pDK30; Crystallised with 5 mM AMPcPP; also called ɸ12 Q278A; Q278A mutant; source: E. coli BL21(DE3) or B834(DE3), purified (Heparin, Q-sepharose, Superdex 200)
**Q.** How did the “stoichiometry N” value [5] turn out when B5 was run?
**A.** 6

B6: wild-type ɸ12 P4 (packaging NTPase P4 of bacteriophage ɸ12) (enzyme)
chain: B2 chain with A288Y
notes: packaging NTPase P4 of bacteriophage ɸ12 (gene 4), wild type; plasmid pPG27; Crystallised here with 5 mM UTP; also called P4 ɸ12; source: E. coli BL21(DE3) or B834(DE3), purified (Heparin, Q-sepharose, Superdex 200)
**Q.** How did the “stoichiometry N” value [6] turn out when B6 was run?
**A.** 6

B7: ɸ12 P4 ΔTTS202-204 (enzyme, bacteriophage ɸ12)
chain: MIHLYDAKSFAKLRAAQYAAFHTDAPGSWFDHTSGVLESVEDGTPVLAIGVESGDAIVFDKNAQRIVAYKEKSVKAEDGSVSVVQVENGFMKQGHRGWLVDLTGELVGCSPVVAEFGGHRYASGMVIVTGKGNSGKTPLVHALGEALGGKDKYATVRFGEPLSGYNTDFNVFVDDIARAMLQHRVIVIDSLKNVIGAAGGNGGISRGAFDLLSDIGAMAASRGCVVIASLNPTSNDDKIVELVKEASRSNSTSLVISTDVDGEWQVLTRTGEGLQRLTHTLQTSYGEHSVLTIHTSKQSGGKQASGKAIQTVIKNDELESVLRRLTSN
notes: packaging NTPase P4 of bacteriophage ɸ12 (gene 4) with the L1 loop central residues T202-T203-S204 deleted; made from plasmid pPG27, plasmid pDK249; also called ɸ12 ΔTTS202-204; source: E. coli BL21(DE3) or B834(DE3), purified (Heparin, Q-sepharose, Superdex 200)
**Q.** How did the “stoichiometry N” value [5] turn out when B7 was run?
**A.** 6
